Laboratory results from patent US20140271457A1 (AbbVie / Abbott, published 2014).

Target: Recombinant Human TNF-α/TNFSF1A (human, UniProt P01375 77-233)
Test: cell-based or functional assay

Chain of Recombinant Human TNF-α/TNFSF1A (P01375 77-233 limits assumed): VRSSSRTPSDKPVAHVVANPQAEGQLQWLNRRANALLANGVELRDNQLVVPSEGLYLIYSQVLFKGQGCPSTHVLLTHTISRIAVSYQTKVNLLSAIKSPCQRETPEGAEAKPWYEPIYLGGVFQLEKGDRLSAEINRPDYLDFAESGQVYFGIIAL

B1: DVD3017 (bispecific antibody, IgG1)
VH: EVTLRESGPGLVKPTQTLTLTCTLYGFSLSTSDMGVDWIRQPPGKGLEWLAHIWWDDVKRYNPALKSRLTISKDTSKNQVVLKLTSVDPVDTATYYCARTVSSGYIYYAMDYWGQGTLVTVSSASTKGPSVFPLAPEVQLVQSGAEVKKPGASVKVSCKASGYTFNNYGIIWVRQAPGQGLEWMGWINTYTGKPTYAQKFQGRVTMTTDTSTSTAYMELSSLRSEDTAVYYCARKLFNTVAVTDNAMDYWGQGTTVTVSS
VL: DIQMTQSPSSLSASVGDRVTISCRASQDIRNYLNWYQQKPGKAPKLLIFYTSKLHSGVPSRFSGSGSGTDYTLTISSLQPEDIATYYCQQGLTPPLTFGGGTKVEIKRTVAAPDIQMTQSPSSLSASVGDRVTITCRASQDIENYLNWYQQKPGKAPKLLIYYTSRLQSGVPSRFSGSGSGTDFTLTISSLQPEDFATYFCQQGNTQPPTFGQGTKLEIKR
  C-Terminal VD huTNFα Neutralization Assay IC50: 0.234 nM

B2: DVD3088 (bispecific antibody, IgG1)
VH: EVQLVQSGAEVKKPGASVKVSCKASGYTFTTYGVSWVRQAPGQGLEWMGEIYPGNYNTYYNEKFRGRVTMTTDTSTSTAYMELRSLRSDDTAVYYCARWRTSYFSDYGYFDYWGQGTTVTVSSGGGGSGGGGSEVQLVESGGGLVQPGGSLRLSCAASGFTFSNYGVTWVRQAPGKGLEWVSMIWADGSTHYASSVKGRFTISRDNSKNTLYLQMNSLRAEDTAVYYCAREWQHGPVAYWGQGTLVTVSS
VL: DVVMTQSPLSLPVTLGQPASISCRSSQSLVHSHGNTYLHWYQQRPGQSPRLLIYTVSNRFSGVPDRFSGSGSGTDFTLKISRVEAEDVGVYYCSQSTHVPYTFGGGTKVEIKRGGSGGGGSGDIQMTQSPSSLSASVGDRVTITCRASQLVSSAVAWYQQKPGKAPKLLIYWASARHTGVPSRFSGSGSGTDFTLTISSLQPEDFATYYCQQHYKTPFTFGQGTKLEIKR
  C-Terminal VD huTNFα Neutralization Assay IC50: 0.472 nM

B3: DVD3089 (bispecific antibody, IgG1)
VH: EVQLVQSGAEVKKPGASVKVSCKASGYTFTTYGVSWVRQAPGQGLEWMGEIYPGNYNTYYNEKFRGRVTMTTDTSTSTAYMELRSLRSDDTAVYYCARWRTSYFSDYGYFDYWGQGTTVTVSSASTKGPEVQLVESGGGLVQPGGSLRLSCAASGFTFSNYGVTWVRQAPGKGLEWVSMIWADGSTHYASSVKGRFTISRDNSKNTLYLQMNSLRAEDTAVYYCAREWQHGPVAYWGQGTLVTVSS
VL: DVVMTQSPLSLPVTLGQPASISCRSSQSLVHSHGNTYLHWYQQRPGQSPRLLIYTVSNRFSGVPDRFSGSGSGTDFTLKISRVEAEDVGVYYCSQSTHVPYTFGGGTKVEIKRTVAAPDIQMTQSPSSLSASVGDRVTITCRASQLVSSAVAWYQQKPGKAPKLLIYWASARHTGVPSRFSGSGSGTDFTLTISSLQPEDFATYYCQQHYKTPFTFGQGTKLEIKR
  C-Terminal VD huTNFα Neutralization Assay IC50: 0.52 nM

B4: DVD3091 (bispecific antibody, IgG1)
VH: EVQLVQSGAEVKKPGASVKVSCKASGYTFTTYGVSWVRQAPGQGLEWMGEIYPGNYNTYYNEKFRGRVTMTTDTSTSTAYMELRSLRSDDTAVYYCARWRTSYFSDYGYFDYWGQGTTVTVSSASTKGPEVQLVESGGGLVQPGGSLRLSCAASGFTFSNYGVTWVRQAPGKGLEWVSMIWADGSTHYASSVKGRFTISRDNSKNTLYLQMNSLRAEDTAVYYCAREWQHGPVAYWGQGTLVTVSS
VL: DVVMTQSPLSLPVTLGQPASISCRSSQSLVHSHGNTYLHWYQQRPGQSPRLLIYTVSNRFSGVPDRFSGSGSGTDFTLKISRVEAEDVGVYYCSQSTHVPYTFGGGTKVEIKRTVAAPSVFIFPPDIQMTQSPSSLSASVGDRVTITCRASQLVSSAVAWYQQKPGKAPKLLIYWASARHTGVPSRFSGSGSGTDFTLTISSLQPEDFATYYCQQHYKTPFTFGQGTKLEIKR
  C-Terminal VD huTNFα Neutralization Assay IC50: 0.192 nM

B5: DVD3098 (bispecific antibody, IgG1)
VH: EVQLVQSGAEVKKPGASVKVSCKASGYTFTTYGVSWVRQAPGQGLEWMGEIYPGNYNTYYNEKFRGRVTMTTDTSTSTAYMELRSLRSDDTAVYYCARWRTSYFSDYGYFDYWGQGTTVTVSSGGGGSGGGGSEVQLVESGGGLVQPGGSLRLSCAASGFTFSNYGVEWVRQAPGKGLEWVSGIWADGSTHYADTVKSRFTISRDNSKNTLYLQMNSLRAEDTAVYYCAREWQHGPVAYWGQGTLVTVSS
VL: DVVMTQSPLSLPVTLGQPASISCRSSQSLVHSHGNTYLHWYQQRPGQSPRLLIYTVSNRFSGVPDRFSGSGSGTDFTLKISRVEAEDVGVYYCSQSTHVPYTFGGGTKVEIKRGGSGGGGSGDIQMTQSPSSLSASVGDRVTITCKASQLVSSAVAWYQQKPGKAPKLLIYWASTLHTGVPSRFSGSGSGTDFTLTISSLQPEDFATYYCQQHYRTPFTFGQGTKLEIKR
  N-Terminal VD huTNFα Neutralization Assay IC50: 0.012 nM

B6: DVD3099 (bispecific antibody, IgG1)
VH: EVQLVQSGAEVKKPGASVKVSCKASGYTFTTYGVSWVRQAPGQGLEWMGEIYPGNYNTYYNEKFRGRVTMTTDTSTSTAYMELRSLRSDDTAVYYCARWRTSYFSDYGYFDYWGQGTTVTVSSASTKGPEVQLVESGGGLVQPGGSLRLSCAASGFTFSNYGVEWVRQAPGKGLEWVSGIWADGSTHYADTVKSRFTISRDNSKNTLYLQMNSLRAEDTAVYYCAREWQHGPVAYWGQGTLVTVSS
VL: DVVMTQSPLSLPVTLGQPASISCRSSQSLVHSHGNTYLHWYQQRPGQSPRLLIYTVSNRFSGVPDRFSGSGSGTDFTLKISRVEAEDVGVYYCSQSTHVPYTFGGGTKVEIKRTVAAPDIQMTQSPSSLSASVGDRVTITCKASQLVSSAVAWYQQKPGKAPKLLIYWASTLHTGVPSRFSGSGSGTDFTLTISSLQPEDFATYYCQQHYRTPFTFGQGTKLEIKR
  N-Terminal VD huTNFα Neutralization Assay IC50: 0.003 nM

B7: DVD3101 (bispecific antibody, IgG1)
VH: EVQLVQSGAEVKKPGASVKVSCKASGYTFTTYGVSWVRQAPGQGLEWMGEIYPGNYNTYYNEKFRGRVTMTTDTSTSTAYMELRSLRSDDTAVYYCARWRTSYFSDYGYFDYWGQGTTVTVSSASTKGPEVQLVESGGGLVQPGGSLRLSCAASGFTFSNYGVEWVRQAPGKGLEWVSGIWADGSTHYADTVKSRFTISRDNSKNTLYLQMNSLRAEDTAVYYCAREWQHGPVAYWGQGTLVTVSS
VL: DVVMTQSPLSLPVTLGQPASISCRSSQSLVHSHGNTYLHWYQQRPGQSPRLLIYTVSNRFSGVPDRFSGSGSGTDFTLKISRVEAEDVGVYYCSQSTHVPYTFGGGTKVEIKRTVAAPSVFIFPPDIQMTQSPSSLSASVGDRVTITCKASQLVSSAVAWYQQKPGKAPKLLIYWASTLHTGVPSRFSGSGSGTDFTLTISSLQPEDFATYYCQQHYRTPFTFGQGTKLEIKR
  C-Terminal VD huTNFα Neutralization Assay IC50: 0.308 nM

B8: DVD3102 (bispecific antibody, IgG1)
VH: EVQLVQSGAEVKKPGASVKVSCKASGYTFTTYGVSWVRQAPGQGLEWMGEIYPGNYNTYYNEKFRGRVTMTTDTSTSTAYMELRSLRSDDTAVYYCARWRTSYFSDYGYFDYWGQGTTVTVSSASTKGPSVFPLAPEVQLVESGGGLVQPGGSLRLSCAASGFTFSNYGVEWVRQAPGKGLEWVSGIWADGSTHYADTVKSRFTISRDNSKNTLYLQMNSLRAEDTAVYYCAREWQHGPVAYWGQGTLVTVSS
VL: DVVMTQSPLSLPVTLGQPASISCRSSQSLVHSHGNTYLHWYQQRPGQSPRLLIYTVSNRFSGVPDRFSGSGSGTDFTLKISRVEAEDVGVYYCSQSTHVPYTFGGGTKVEIKRTVAAPDIQMTQSPSSLSASVGDRVTITCKASQLVSSAVAWYQQKPGKAPKLLIYWASTLHTGVPSRFSGSGSGTDFTLTISSLQPEDFATYYCQQHYRTPFTFGQGTKLEIKR
  C-Terminal VD huTNFα Neutralization Assay IC50: 0.294 nM

B9: DVD3103 (bispecific antibody, IgG1)
VH: EVQLVQSGAEVKKPGASVKVSCKASGYTFANYGIIWVRQAPGQGLEWMGWINTYTGKPTYAQKFQGRVTMTTDTSTSTAYMELSSLRSEDTAVYYCARKLFTTMDVTDNAMDYWGQGTTVTVSSGGGGSGGGGSEVQLVESGGGLVQPGGSLRLSCAASGFTFSNYGVTWVRQAPGKGLEWVSMIWADGSTHYASSVKGRFTISRDNSKNTLYLQMNSLRAEDTAVYYCAREWQHGPVAYWGQGTLVTVSS
VL: DIQMTQSPSSLSASVGDRVTITCRASQDISQYLNWYQQKPGKAPKLLIYYTSRLQSGVPSRFSGSGSGTDFTLTISSLQPEDFATYFCQQGNTWPPTFGQGTKLEIKRGGSGGGGSGDIQMTQSPSSLSASVGDRVTITCRASQLVSSAVAWYQQKPGKAPKLLIYWASARHTGVPSRFSGSGSGTDFTLTISSLQPEDFATYYCQQHYKTPFTFGQGTKLEIKR
  N-Terminal VD huTNFα Neutralization Assay IC50: 0.016 nM

B10: DVD3104 (bispecific antibody, IgG1)
VH: EVQLVQSGAEVKKPGASVKVSCKASGYTFANYGIIWVRQAPGQGLEWMGWINTYTGKPTYAQKFQGRVTMTTDTSTSTAYMELSSLRSEDTAVYYCARKLFTTMDVTDNAMDYWGQGTTVTVSSASTKGPEVQLVESGGGLVQPGGSLRLSCAASGFTFSNYGVTWVRQAPGKGLEWVSMIWADGSTHYASSVKGRFTISRDNSKNTLYLQMNSLRAEDTAVYYCAREWQHGPVAYWGQGTLVTVSS
VL: DIQMTQSPSSLSASVGDRVTITCRASQDISQYLNWYQQKPGKAPKLLIYYTSRLQSGVPSRFSGSGSGTDFTLTISSLQPEDFATYFCQQGNTWPPTFGQGTKLEIKRTVAAPDIQMTQSPSSLSASVGDRVTITCRASQLVSSAVAWYQQKPGKAPKLLIYWASARHTGVPSRFSGSGSGTDFTLTISSLQPEDFATYYCQQHYKTPFTFGQGTKLEIKR
  N-Terminal VD huTNFα Neutralization Assay IC50: 0.033 nM

B11: DVD3108 (bispecific antibody, IgG1)
VH: EVQLVQSGAEVKKPGASVKVSCKASGYTFTTYGVSWVRQAPGQGLEWMGEIYPGNYNTYYNEKFRGRVTMTTDTSTSTAYMELRSLRSDDTAVYYCARWRTSYFSDYGYFDYWGQGTTVTVSSGGGGSGGGGSEVQLVQSGAEVKKPGASVKVSCKASGYTFANYGIIWVRQAPGQGLEWMGWINTYTGKPTYAQKFQGRVTMTTDTSTSTAYMELSSLRSEDTAVYYCARKLFTTMDVTDNAMDYWGQGTTVTVSS
VL: DVVMTQSPLSLPVTLGQPASISCRSSQSLVHSHGNTYLHWYQQRPGQSPRLLIYTVSNRFSGVPDRFSGSGSGTDFTLKISRVEAEDVGVYYCSQSTHVPYTFGGGTKVEIKRGGSGGGGSGDIQMTQSPSSLSASVGDRVTITCRASQDISQYLNWYQQKPGKAPKLLIYYTSRLQSGVPSRFSGSGSGTDFTLTISSLQPEDFATYFCQQGNTWPPTFGQGTKLEIKR
  C-Terminal VD huTNFα Neutralization Assay IC50: 0.183 nM

B12: DVD3109 (bispecific antibody, IgG1)
VH: EVQLVQSGAEVKKPGASVKVSCKASGYTFTTYGVSWVRQAPGQGLEWMGEIYPGNYNTYYNEKFRGRVTMTTDTSTSTAYMELRSLRSDDTAVYYCARWRTSYFSDYGYFDYWGQGTTVTVSSASTKGPEVQLVQSGAEVKKPGASVKVSCKASGYTFANYGIIWVRQAPGQGLEWMGWINTYTGKPTYAQKFQGRVTMTTDTSTSTAYMELSSLRSEDTAVYYCARKLFTTMDVTDNAMDYWGQGTTVTVSS
VL: DVVMTQSPLSLPVTLGQPASISCRSSQSLVHSHGNTYLHWYQQRPGQSPRLLIYTVSNRFSGVPDRFSGSGSGTDFTLKISRVEAEDVGVYYCSQSTHVPYTFGGGTKVEIKRTVAAPDIQMTQSPSSLSASVGDRVTITCRASQDISQYLNWYQQKPGKAPKLLIYYTSRLQSGVPSRFSGSGSGTDFTLTISSLQPEDFATYFCQQGNTWPPTFGQGTKLEIKR
  C-Terminal VD huTNFα Neutralization Assay IC50: 0.731 nM
